According to article PMC3681696 (Molecular Biology of the Cell, 2013):

Biological target: purified muscle actin filaments (UniProt P68135 1-377)

B1: recombinant Rng2p calponin homology domain (domain or fragment)
chain: MDVNVGLSRLQSQAGAPVGTKGSNTRLAAKQRETLQAYDYLCRVDEAKKWIEECLGTDLGPTSTFEQSLRNGVVLALLVQKFQPDKLIKIFYSNELQFRHSDNINKFLDFIHGIGLPEIFHFELTDIYEGKNLPKVIYCIHALSYFLSMQDLAPPLIKSDENLSFTDEDVSIIVRRLRQSNVILPNFKAL
Kd: ~20 µM
